Where no end group is shown, it is not given here. The star is where a group is joined. FITC = O=C1OC2(c3ccc(O)cc3Oc3cc(O)ccc32)c2ccc(NC(=S)*)cc21
Tests used:
Test in all cases: FP
[1] = target: T1, GST-tagged GluK1 N72-137 region (rat, UniProt P22756 72-137)
T1 chain: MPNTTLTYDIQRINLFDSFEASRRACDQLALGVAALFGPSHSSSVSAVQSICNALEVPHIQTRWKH

[2] = target: T2, GST-tagged GluK2 region corresponding to GluK1 N72-137 (rat, UniProt P42260 71-136)
T2 chain: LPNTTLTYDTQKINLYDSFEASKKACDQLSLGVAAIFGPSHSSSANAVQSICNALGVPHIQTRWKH

GST-tagged GluK2 ATD = target: T3, GST-tagged GluK2 ATD (rat)
T3 chain: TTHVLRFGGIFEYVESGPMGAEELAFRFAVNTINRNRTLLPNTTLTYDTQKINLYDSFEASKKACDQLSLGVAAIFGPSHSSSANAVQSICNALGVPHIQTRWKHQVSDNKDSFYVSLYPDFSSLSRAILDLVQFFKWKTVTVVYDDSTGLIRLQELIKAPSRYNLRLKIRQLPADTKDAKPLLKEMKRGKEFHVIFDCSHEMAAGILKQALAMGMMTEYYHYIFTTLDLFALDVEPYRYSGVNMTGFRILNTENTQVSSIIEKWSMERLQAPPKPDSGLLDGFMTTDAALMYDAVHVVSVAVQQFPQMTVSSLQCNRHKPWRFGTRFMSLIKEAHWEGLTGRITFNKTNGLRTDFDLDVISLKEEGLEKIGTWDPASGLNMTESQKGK

GST-tagged GluK1 ATD = target: T4, GST-tagged GluK1 ATD (rat)
T4 chain: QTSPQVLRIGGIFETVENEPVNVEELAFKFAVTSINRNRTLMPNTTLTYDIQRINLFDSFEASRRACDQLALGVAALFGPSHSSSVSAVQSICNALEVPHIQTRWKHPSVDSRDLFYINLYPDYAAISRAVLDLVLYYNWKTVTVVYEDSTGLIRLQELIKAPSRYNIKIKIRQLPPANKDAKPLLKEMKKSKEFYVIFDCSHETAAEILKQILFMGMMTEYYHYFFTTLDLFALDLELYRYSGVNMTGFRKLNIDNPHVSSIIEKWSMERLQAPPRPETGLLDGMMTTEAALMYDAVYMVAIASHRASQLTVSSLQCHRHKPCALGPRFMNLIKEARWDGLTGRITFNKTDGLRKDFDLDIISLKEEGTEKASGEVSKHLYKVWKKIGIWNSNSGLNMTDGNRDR

For {FITC}-MERSTVLIQPGLWTRDTSWTLLYFLCYILP [FITC-labelled GluK1 signal peptide], which Kd [1] is on record?
Its Kd is 14.1 µM.

And the Kd [2]?
Its Kd is 36.3 µM.

And the Kd (GST-tagged GluK2 ATD)?
The Kd was 35.7 µM.

And the Kd (GST-tagged GluK1 ATD)?
The Kd was 13.7 µM.
